Test results from the supplement of paper PMC10126150.
± gives the standard deviation of the averaged measurements.

Test system: ATP
Assay: switch fluorescence ratio, 500 uM ATP over buffer (Cy3 cluster intensity, sum of 5 cycles each) (fold (ratio)); higher = stronger signal-on switching upon ATP binding; sequences stand for … in TCGTCGGCAGCGTCAGATGTGTATAAGAGACAGTTTTTTTTTTTTTTTTTTTTTTTTT…TC
Details: aptamer strand: ATP DNA aptamer (quencher-CACCTGGGGGAGTATTGCGGAGGAAGG + anchor), 100 nM annealed; ATP concentration: 500 uM
Summary of the method: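 Imaging in selection buffer was followed by imaging after 15 min with 500 uM ATP at 22 °C, for Cy3-labelled switching-strand clusters annealed to 100 nM quencher-labelled ATP aptamer on a modified Illumina MiSeq flow-cell. Five of these buffer/ATP cycles ran, separated by NaOH stripping and re-annealing. The fluorescence ratio per cluster is summed target-cycle over summed buffer-cycle Cy3 intensity, averaged per switch-domain sequence; clusters outside 100-1000 RFU were removed.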
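Note: ATP exposure 15 min at 22 °C before imaging.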

Row | Sequence | switch fluorescence ratio
1 | ATGAGGTGCG | 0.972 ± 0.035
2 | TAATTCTTAG | 0.989 ± 0.02
3 | TTACGGTCTA | 1.03 ± 0.013
4 | TACGAGGGGA | 1.03 ± 0.026
5 | AAATGGAACC | 1.04 ± 0.065
6 | TTTCATTCTC | 0.991 ± 0.01
7 | GGCTTCTGAT | 0.999 ± 0.022
8 | CAAAAATGGC | 1.02 ± 0.011
9 | GGGAGAGAGT | 0.999 ± 0.029
10 | TCAATTCTAC | 1.02 ± 0.041
11 | TTCATTGGTG | 1.09 ± 0.035
12 | GTTAAAAAGG | 0.998 ± 0.022
13 | CATTGAAGAG | 0.998 ± 0.013
14 | TCCTGCAGGA | 1.03 ± 0.014
15 | CTGGTTGTCT | 1.01 ± 0.006
16 | CTGTAGTTTT | 1.04 ± 0.038
17 | CTAGGGGGTG | 1.03 ± 0.062
18 | ATGGAGACGG | 0.979 ± 0.019
19 | CACTAGAGTG | 1.021 ± 0.0063
20 | GAGCTATTCT | 1.08 ± 0.0029
21 | GCGTTATGTG | 1.017 ± 0.01
22 | GGGGTAGGTA | 0.96 ± 0.038
23 | ATGCCAGGGT | 0.998 ± 0.031
24 | TTAACAGTGG | 0.989 ± 0.032
25 | GTTATTGGGG | 1.01 ± 0.024

Row | Sequence | switch fluorescence ratio
26 | GTAAGGGAAA | 1.02 ± 0.051
27 | TGGGCTATGC | 0.986 ± 0.059
28 | ATAAGCCCCG | 0.993 ± 0.049
29 | GGCAGCCGGC | 1.03 ± 0.041
30 | AGGGTGAATT | 0.9848 ± 0.0075
31 | TCAAGTTTTT | 1.012 ± 0.0044
32 | AAATCTCTTA | 0.997 ± 0.015
33 | GGTTGAGGGG | 0.985 ± 0.034
34 | AATTGGGATT | 0.998 ± 0.026
35 | TCCAGGGGCA | 1.67 ± 0.1
36 | GTGCTAACGG | 0.9633 ± 0.0069
37 | GACTGTGATG | 0.9708 ± 0.0097
38 | ACGGAAGGGA | 0.991 ± 0.036
39 | ATTCAAGGTT | 0.973 ± 0.024
40 | GGGGCCATTT | 0.99 ± 0.033
41 | ATTACGGAAA | 1.74 ± 0.96
42 | CAGTATGGTA | 1 ± 0.012
43 | GGAGTGGGAT | 1.03 ± 0.034
44 | AGTTGCGTCG | 0.997 ± 0.031
45 | GTTTGTGCAT | 1.025 ± 0.0083
46 | TTGTTTTGTG | 0.978 ± 0.013
47 | TTTCCGGGGA | 1.18 ± 0.29
48 | CGTCGCAGAA | 1.093 ± 0.004
49 | TTTCTTTATC | 0.974 ± 0.017
50 | GAGTTATTCG | 1.02 ± 0.023

Row | Sequence | switch fluorescence ratio
51 | GGTTATAGTC | 0.966 ± 0.02
52 | AGGCAACCAA | 1.02 ± 0.017
53 | GACTTAGGGA | 0.9949 ± 0.0013
54 | TTTGGGTGGA | 1.02 ± 0.05
55 | GGGCCTGGAA | 1.01 ± 0.069
56 | ACGTGACGGG | 1.07 ± 0.029
57 | TTTGAGGGGG | 1.01 ± 0.066
58 | CGGTTAAAGG | 0.974 ± 0.03
59 | ACAAGGGTTA | 0.999 ± 0.018
60 | GCGTCTAAGG | 0.981 ± 0.021
61 | GATTTGCATC | 1.03 ± 0.025
62 | ATTTTACGAA | 1.028 ± 0.0065
63 | TAGTGTTGTG | 0.971 ± 0.055
64 | TAATTGCGGG | 0.9554 ± 0.0095
65 | AAGGATGAGG | 0.987 ± 0.021
66 | GACATTATGC | 1.03 ± 0.014
67 | GTTGTGAAAG | 1 ± 0.035
68 | GCTCTAATTG | 1.008 ± 0.0058
69 | GTTCGGGGCC | 1.01 ± 0.046
70 | CGGGAGGGGT | 1.06 ± 0.14
71 | GGTGAAGGGG | 1.15 ± 0.27
72 | TGGTACGGGG | 1.02 ± 0.033
73 | AGAGGGCTTG | 0.997 ± 0.018
74 | ATTATATGGG | 1.016 ± 0.0029
75 | GAGAAATCTT | 1.01 ± 0.03

Row | Sequence | switch fluorescence ratio
76 | TGAGCTAGGG | 1.005 ± 0.0026
77 | ACGTTTGTCC | 1.03 ± 0.022
78 | ATAGTCCCTA | 1.01 ± 0.0019
79 | ACTGACAGCG | 1.0189 ± 0.00036
80 | GAATGAACCA | 0.998 ± 0.049
81 | TAATGAGGTG | 1.04 ± 0.023
82 | GGATATAGCC | 0.994 ± 0.013
83 | AGGTTGTTTG | 1.01 ± 0.031
84 | TTAGGGTGTA | 1.01 ± 0.046
85 | ATGGGGGGG | 1.01 ± 0.014
86 | TGTTCCGACT | 1.05 ± 0.051
87 | CGAACGGGGA | 1.16 ± 0.049
88 | TTTTTTGGAT | 1.01 ± 0.022
89 | ATAGCTTGGC | 1.011 ± 0.0047
90 | GGGAGCCGGT | 1.02 ± 0.015
91 | TTGAGCCGGT | 1 ± 0.045
92 | AAGGGAGAGA | 1.02 ± 0.011
93 | GCTAACCGTA | 1.04 ± 0.023
94 | ATTGCGCCCG | 1.032 ± 0.0088
95 | CAGTATGTAG | 0.957 ± 0.02
96 | TCGAATGT | 1.01 ± 0.012
97 | TAGTACTCGT | 1.01 ± 0.011
98 | TATTGGATGC | 0.97 ± 0.032
99 | GATAGGATAG | 0.991 ± 0.019
100 | GACTTCCATT | 1.07 ± 0.016

Row | Sequence | switch fluorescence ratio
101 | TGTTTTAAGG | 1.009 ± 0.0081
102 | AAGAAAGTGG | 0.993 ± 0.034
103 | TTAGCGGGA | 1 ± 0.023
104 | GTTGGGGCCT | 1.03 ± 0.051
105 | CCTATGGGTT | 1.05 ± 0.015
106 | TGTTTAATTC | 1.3 ± 0.39
107 | GAAGGTCCAC | 1.017 ± 0.0078
108 | CAGAAATTGG | 1.013 ± 0.01
109 | CATGGCACGT | 1.02 ± 0.011
110 | AAGGCTGAGG | 0.985 ± 0.018
111 | TGGGGTACGA | 1.01 ± 0.026
112 | GCCAGGGGTG | 1.47 ± 0.033
113 | GTGGTTTAAC | 1.04 ± 0.0087
114 | TCTTTTTTTT | 1 ± 0.041
115 | AGAGTTGGGA | 1.01 ± 0.018
116 | TCCAAGAGGG | 1.01 ± 0.031
117 | GCTACGATGT | 1.01 ± 0.049
118 | ATCGGAAAGC | 1.07 ± 0.028
119 | ATCTAGGGTT | 0.995 ± 0.022
120 | CAATGCGGGG | 1.01 ± 0.023
121 | TGGACGAGAG | 1.01 ± 0.019
122 | TTTTTTCGTC | 1.02 ± 0.011
123 | AGGGTTATTC | 1 ± 0.013
124 | GTTTGTGGCG | 0.959 ± 0.024
125 | TGCACCAGG | 3.29 ± 0.44

Row | Sequence | switch fluorescence ratio
126 | TATTATGGGT | 0.982 ± 0.036
127 | AGGGTCGCTA | 1 ± 0.014
128 | GGGGAAGGCA | 0.946 ± 0.084
129 | GGATAACGGG | 1.02 ± 0.023
130 | TTGAAATTAA | 1.01 ± 0.025
131 | TTATTTGGTC | 1 ± 0.056
132 | TTGCTACATA | 1.07 ± 0.011
133 | GGAAGCCACG | 1.06 ± 0.022
134 | ACGGCCGGGA | 1.02 ± 0.026
135 | AGGGGTACAG | 0.995 ± 0.04
136 | TCTATCCCAG | 1.13 ± 0.092
137 | TAGTTGTAGG | 1.04 ± 0.051
138 | TTTATTGTCA | 0.987 ± 0.029
139 | ACAGGAGGAA | 1.01 ± 0.046
140 | GTTCACTACC | 1.15 ± 0.0083
141 | TTTAGCCTCG | 0.992 ± 0.046
142 | GAGTTTTGCG | 1.03 ± 0.093
143 | GGGAGCTGAA | 1.04 ± 0.04
144 | GGCCTGTGTG | 1.02 ± 0.041
145 | TTCTTTTTCG | 0.973 ± 0.056
146 | AAAAACGCTA | 1.14 ± 0.026
147 | GATATTTGCG | 1.015 ± 0.0024
148 | TATGTTACGG | 1.03 ± 0.0075
149 | GTGTTATCAC | 0.984 ± 0.054
150 | CGGGCGTTGT | 1 ± 0.04

Row | Sequence | switch fluorescence ratio
151 | TTCCGTTGTG | 0.98 ± 0.049
152 | GCTTTTGGCT | 0.992 ± 0.023
153 | TGTTGATCAG | 0.982 ± 0.03
154 | TTCGGGCGTC | 1.01 ± 0.039
155 | TAGGGAATCA | 0.97 ± 0.014
156 | TTATCCACGA | 1.03 ± 0.033
157 | CAAAGATAGT | 0.996 ± 0.037
158 | GATAGTGC | 1.06 ± 0.078
159 | AGAAAAAACA | 0.986 ± 0.02
160 | GGAGGCCATG | 0.967 ± 0.01
161 | TAGGGTTTTC | 0.988 ± 0.045
162 | TCCATCTGGG | 1.01 ± 0.032
163 | AAGACTGAGG | 0.956 ± 0.026
164 | TTTCGGTCTG | 1.006 ± 0.0075
165 | GAGTTAGGGC | 0.99 ± 0.011
166 | TCTGGGCCAT | 1.29 ± 0.43
167 | TGGGTTTATT | 0.984 ± 0.014
168 | GTGATTGAGT | 0.9707 ± 0.0089
169 | TCAAGTATCA | 1.02 ± 0.02
170 | AGAAGCGCGG | 0.975 ± 0.044
171 | CGGTGACTCG | 1.03 ± 0.029
172 | GATGGGGTAA | 0.997 ± 0.008
173 | AATAGTTCTG | 0.951 ± 0.043
174 | CGTTTAGGGA | 1.004 ± 0.0026
175 | CATCGGGTGG | 1.03 ± 0.09

Row | Sequence | switch fluorescence ratio
176 | GGGTTCGTGG | 0.997 ± 0.031
177 | TCCAAGACGA | 1.34 ± 0.23
178 | TGTGTATTGG | 1 ± 0.045
179 | TCCTTTAGCC | 1.23 ± 0.015
180 | TCCACCGA | 1.04 ± 0.017
181 | CAGGGTGGTC | 1.04 ± 0.0048
182 | GATCAAGGGA | 1.03 ± 0.052
183 | TGAATTTAT | 0.998 ± 0.012
184 | GCTTAATGT | 1 ± 0.083
185 | AATTGGTCAT | 1 ± 0.018
186 | GATGGATCGA | 0.977 ± 0.039
187 | TGTTGAAGGG | 1.01 ± 0.014
188 | CGAGATACTC | 1.86 ± 0.17
189 | CAATCACAGG | 1.286 ± 0.0086
190 | TCCGGTGTTT | 1.081 ± 0.0036
191 | CAGGTCGGCT | 0.995 ± 0.052
192 | GAGGTACTTT | 0.993 ± 0.022
193 | CGGCGATCGG | 0.99 ± 0.013
194 | TTCTCAGAGG | 1.01 ± 0.029
195 | GGTTTTGAGA | 1.02 ± 0.029
196 | ATATATGTAA | 0.994 ± 0.023
197 | TTGGGAAATT | 1.02 ± 0.04
198 | TGCTGTTCTC | 0.995 ± 0.018
199 | TAGGAGCTTG | 1 ± 0.042
200 | ATGTTGGTTT | 0.996 ± 0.021
